Data: a protein production outcome set (Wang et al. 2014)

Experiment: label from the status in PepcDB records

| Sequence | protein production |
| --- | --- |
| MISVAHSPDADDIFMYYAIKFGWIDCPIKNKAFHNIALDIETLNQEALKNTYDVSAISFGLYPKIANDYALLPTATSFGNGYGPKLVKKKGVKLKKDFRVALSGEHTTNALLFKIYYKHARITYMNFLDIEKAVLEEKVHAGVLIHESILDFHNELEVEKELWDVWKELIEVDLPLPLGGMAIRRSIPLYRAILIKKALIKAVEVALKHQNLLSGMLLERSLIRVNKERLRTYLSLYANETSTRLSEIQILAIDKLFELGYQHGFYASLLKTKDCLLTDEYLKYRFS | failed |
| MINTMTLDNGVRIITEKMSTVRSVSIGIWVGTGSRYESAEENGISHFLEHMFFKGTNTRSAQEIAEFFDSIGGQVNAFTSKEYTCYYAKVLDDHAGQAIDTLSDMFFHSTFQKEELEKERKVVFEEIKMVDDTPDDIVHDLLSSATYGKHSLGYPILGTVETLNSFNEGMLRHYMDRFYTGDYVVISVAGNVHDELIDKIKETFSQVKPTTYNYQGEKPMFLPNRIVRKKETEQAHLCLGYPGLPIGDKDVYALVLLNNVLGGSMSSRLFQDIREKRGLCYSVFSYHSSFRDSGMLTIYAGTGHDQLDDLVYSIQETTSALAEKGLTEKELENGKEQLKGSLMLSLESTNSRMSRNGKNELLLKKHRSLDEMIEQINAVQKQDVSRLAKILLSASPSISLINANGELPKALIH | failed |
| RTALRTEYALRQEAQAARKHAEGILASISDGFIALDEQYRFTYVNAAAERLIASTAEELIGKVYWDVYPMMLGTKIEQAYRRAMTERVACEFESYHPPSKRWFELRVAPTNGKSISVYFRDITEQKKAEAALRDINEQLEEQV | failed |
| MRERAASARGVQLARSSRVFRKAEWWNDARRFRTVIASAAKQSDRHRGDSPGLLRCARNDACEAMAERHTATGSDRSTSSLASFELRVERNATFPGNVTRLLHLIVVLLLVAGRTAFAAPCQFESQGDGRVAAIVDARSVRLDDGREIRLTGIEPTATTKQALASLLVGRDVTLRSADDTPDRYGRQGGLIFIGDSDTPVQAMLLAQGDAIVSAEIADKDCAAALMSSEAEARRQKKGNWADPSAIKNAESPDDILAGIGRFVVVEGKVLSVRQAGAMTYLNFGRNWTRGFAVTISRRASPAFETAGIALKSLENRRIRVRGWVEGNTGPRIDVRLVGQVELLGANEPAGVRP | failed |
| EGAGDALTTVAERARLLADACAGVILHPTAEGGMAIVTASTPDDPDGMVGATIEPGSPVLEQLLGGEPVFVDDSATDPRMTTHVRHRFGPSMMLPLQAGGRLIGTLALPRRRGGRPYTDLERLLATQFASQAALALVLADARRGRELLAVYEDRDRIARDLHDLVV | failed |
| MTKTVEMVITGAQVLNVYTREFEATSLWIDHGRIISNLRDEPYIAAQHVDATGQWIVPGMIDAHVHMESSMVAPSELGKVLLQHGVTTIATDPHELANVAGLEHHHHHH | failed |
| PTEFLYTSKIAAISWAATGGRQQRVYFQDLNGKIREAQRGGDNPWTGGSSQNVIGEAKLFSPLAAVTWKSAQGIQIRVYCVNKDNILSEFVYDGSKWITGQLGSVGVKVGSNSKLAALQWGGSESAPPNIRVYYQKSNGSGSSIHEYVWSGKWTAGASFGSTVPGTGIGATAIGPGRLRIYYQATDNKIREHCWDSNSWYVGGFSASASAGVSIAAISWGSTPNIRVYWQKGREELYEAAYGGSWNTPGQIKDASRPTPSLPDTFIAANSSGNIDISVFFQASGVSLQQWQWISGKGWSIGAVVPTGTPAGW | not failed |
| MEPAGPCGFCPAGEVQPARYTCPRCNAPYCSLRCYRTHGTCAENFY | not failed |
| MLLEDRILKKWLLPFILSVLIAVDSMAQCIPVYKDSSMSVERRVTDLLGRMTLREKIAQLSHLHGYQLYNGQEVDYQKLRDAAGDISYGCIEGFNLTGENVRKAFHAIQKYMVEETRLGIPVFTVTESLHGSVHDGSTIFPQSVAVGSTFNLDLAYQMTKAIATELRSQGVIQTLSPGLDVVRDLRWGRVEESFGEDPWLVGQMGIAQVKGYIDGGISPMLKPFGPGGAPLGGLNLASVESGERDIRNIHIKPYEMAVRNTEVKAVMTSYNSWNGIPNSASSYLLTNILRNEWGFKGYVYSDWGAVAMLKDFQHTAKDDSEAAIQALTAGVDLEASSNCYWALEQLIEQGRFDEKYVDLAVGRILRVKFELGLFENPYQGADMPGVAMRTKEAVELSRRVADESIVLLKNENTLLPLNLNKIKSLAVIGPNANQVQFGDYTWSRSNKDGVTPLEGLKKRVGNKIKINYAAGCDLITDNKSGFDEAVAAVKASDMAVVFVGSSSASLARDYSDATCGEGFDLSSLDLTGVQEELVEEIYAIGKPVIVVLVTGKPFSISWIKEHIPAIVVQWYGGEKAGDAIADMLLGNINPSAKLPFSFPQSVGHLPVFYNHLPTDKGFYRRPGRPNEPGRDYVFSSPAPLWSFGHGLSYTTFEYLNAHYSAELLHPSDTLIVSVSLKNTGSVAGKEVVQLYVRDVVSSVVTPVKQLKAFSKPFLQPGEMQTVVLKLPIQELALYDLSMKKVVEEGEYEIQIGTASDDIRLRRTIFVGRQPVTSNSLGHNDFCMDEIVKNPGRKIKVAGCVRDVQATPISGIEIKSNYSGRTVISKEGGRYSILTVENDVLTVSAKGFETVNIKVNKQKDIDIKLNYSHD | failed |
| YLELNEIESIIKDINTKAQKMHSGIHKRFYLFVALMTEFQALNGMRIGEMLAIQNEDIDFDNKSLNINGTIHWFHDESGGFGVKDTTKTESSYRTIGLSSRSCEILKKAILENKKDSKWNDGYLNRNFVFTNHKGNPMQTERFNKILREAAKDVGIDKEVSSHILRHSHISLLSQQGVSLKAIMDRVGHSDHRTTLSIYSHVTEQMDKDMMNKLEQVKLG | not failed |
| MNPLVIKLGGVLLDSEEALERLFTALVTYREKHERPLVIMHGGGCLVDELMKRLALPVVKKNGLRVTPADQIDIITGALAGTANKTLLAWAVKHQINAVGLCLADGNTVTVTLLDAELGHVGKAQPGSAALVQTLLAAGYMPIISSIGITVEGQLMNVNADQAATALAATLGADLILLSDVSGILDGKGQRIAEMTAQKAEQLIAQGIITDGMVVKVNAALDAARSLGRPVDIASWRHSEQLPALFNGVPIGTRISV | not failed |
| MKKRIIFFLILLVSFRIFADYKSEYDNLLSARNIKGIAALLPKWEKAEPKNPELYIAYFNYYLLKGQRSTQSLDTYKKDNTNSLALVDQKTNKIAGYLNNNIWYEKEDVDKALSYLEKGLKFGKNRLDMYFGRIHILGEIGEYEKQSQKIIEVLKLGKEINHKWLWSMNEVIPSSESEHFFLISINEYYKNWLQKSSPQTLNAAEKTGEAQLKLYPKNIEVHNYLSLAYIGQGKFKEALNVLLKADKLANEDYVIIFNMGRCYEALKQYDKAKECYLRMKKNPNKQVQDMADQKLSELKKLTK | failed |
| MKTEMTNVDISVAVSELQKVINGKLDKAFLVNNQDGKELILKVHIPEIGSREIAIGLGKYKYMTLTEYEREKPRNPPSFVMLLRKHLKNIKITSVAQHNFDRIVIFNFEWNELKYKLIIELFGDGNAILLDSEDKIILPLKIERWSTRKIVPKEIYKFPPQKDLDPKNLDYSLAKKLFIEEFEKEENKDTEVVRIISRTFGLAGVYSEEICLNSEIDKNLKNPKNEEIEKLFEGSKSFFKKVFGELKPKSTLKNGEFVNIDPIDLKIHENLKENEIKHYESFLTALDEYFSRFIMKKEIKQAESKLQKLVKKQERILKSQLDTKDKYEKQSVSNHKRGDLIYANYSLVDEIVSTIKDAREKMDWNGIKNVIKENKTHPILSKIINVNEKNAELTLKLSADYGNGLIEDSVPVDLRKNAFENADIVYQKSKKFKNKVQGVIEALKISEKKLAELKEKEKLDSEVFKEKEEKIKKKERK | failed |
| MFQYRFKRSFSSDPNLSDTIGDRLFDLMEATFPGLNDLAECGRKLGAPWEKASTPFIRFHDDVAITHVGVLEIPMVILGQRVTVGGIHGVATREEFRRRGYYREVMEEALEYCDQIYETLVLTTPEPEYYLPFGFRVVEEYIFH | failed |
| MSTQTSIEWTEMTWNPIVGCTKVSPGCKHCYAENMAHRLQAMGTPGYENGFKLSLRPEKLREPLQRKKPTIYFVNSMSDLFHEKVPDHYIDQVFEVIREATQHTFQILTKRAERLADYFSKRTPPTNAWLGVSVEDKAYGVPRIDCLRRVNATIRFLSAEPLLEDLGEIDLTDIHWVIVGGESGNKARPMQQEWVDNIHRQCDVSGSAFFFKQWGGWGADGVKRSKKANGRLLNGQTWDEIPLLNLALEHHHHHH | failed |
| MKKILILFFLLFTVNAFTQNYADYMSSGLDAYARSDWSSALFSFQKAMEVSKNSLDEPLYWLIMANASARNYTVALNDIETFLKRFPNSSKAAEVIYQQGRICCLSAKHDQSINILYGFLRKYPNHRQTASAYYWIGENLYMVGRLKDARTIFSRVIIDYPSSAKVEPSRYKIALIDQASTQDELLKLLKISHEELLKLSEESEKNKKIYEQTIAAYQRQSSDAGGDMRIAELSEQLKMERKHNEELHDQLVMLELKNQELLATLAKMDAKYTSEMAADGETPAADYSDPKAKRAAIEALIKKAKILQSMYNQLLEGNGQ | failed |
| MKNPIIDNIPCVLLAGGKSSRFITNNIQTNKALMPLKSYSSLLEYQYTRLLKLFKKVIISTKKSYELNAPYLLEKESDLFSPLFGIHNAFLTLQTPYIFFIPIDTPLVSFESIKALCGIKNFSVTYAKSPTKEHYLISLWHQNTLNALIYALKTQNYRLSDLVKNTSSVAINFDKEEEFLNLNTLKDYELAVQILKKRANG | failed |
| MEIKQPAELSHVLTMTHRNLLKMWHNPDNVSDVVIQPIIFTLLFGYLFGGAIAGSVQAYLPMLVTGILIQSILNAASGSGQQLREDINAGVFDRFKTLPISPIVPLAGQLVGDVFRLLISGLMALVTAFMMGWRPIVSPLVLIGVLLLAVFVGWSLSWVFALVGLMVKNAALIGSLSMIIILVLTFLSNAFIPTKTLPHLLQTIVRLNPVSLTITAMRTILRTGHWGPDAFGVLLSGFLIIVIFMPLTVLAYRRFG | failed |
| MCEIFIRANQRSYSVQARSLRLHGVATSVRLEQLFWDVLEEIAARDGMRVTQLIERLYDELVQYRGEAANFTSFLRVCCLRYQVLQAEGRIPADATVPIRSLDAQAVLRGLPANLYDSRPLG | not failed |
| MPDKFKRVHVIVMDSVGIGEAPDAAKFGDFDVDTFGHIAKHVGGLKMPEMGKLGLSNIREIEGIEKAEKPLAYYTKMQEASNGKDTMTGHWEIMG | failed |
| MRIGMRLLLGYFLLVAVAAWFVLAIFVKEVKPGVRRATEGTLIDTATLLAELARPDLLSGDPTHGQLAQAFNQLQHRPFRANIGGINKVRNEYHVYMTDAHGKVLFDSANKAVGQDYSRWNDVWLTLRGQYGARSTLQNPADPESSVMYVAAPIMGGSRLIGVLSVGKPNAAMAPVIKRSERRILWASAILLGIALVIGAGMVWWINRSIARLTRYADSVTDNKPVPLPDLGSSELRKLAQALESMRVKLEGKNYIEQYVYALTHELKSPLAAIRGAAEILREGPPPEVVARFTDNILTQNARMQALVETLLRQARLENRQEVVLTAVDVAALFRRVSEARTVQLAEKNITLHVMPTEVNVAAEPALLDQALGNLLDNAIDFTPESGCITLSAEVDQEHVTLKVLDTGSGIPDYALSRIFERFYSLPRANGQKSSGLGLAFVSEVARLFNGEVTLRNVQEGGVLASLRLHRHFT | failed |
| MTYHASTPSTPLLVTGGTGTLGGHVVPLLREAGHDVRVLTRRTRPATGNGITYVTGDLRTGEGVEAAVDGVHTVLHLAGGPKGDDEATRTLVRAAARADVRHLAYISVVGADRVPLAWLRTKLESERAIADSGLGWTVLRAAQFHELTLTMIEKMTRLPVLPVPGGLRLQPVAAREVAVRLAELTLAEPSGRVPDMTGPEVLDLATLAHSYLDLRGGRRRPKLPVRIPGKAGRAYRSGQNLTLEDALVGKVTWTEFLAERAAV | failed |
